From US20240058466A1 (TAE LIFE SCIENCES, published 2024) come the findings set out here.

In the test the target is T1, recombinant human FcRn (Sino Biological) (human, UniProt P55899 24-297; P61769 21-119).
T1 construct: the two chains are those of natural FcRn
Description: ELISA at pH 6.0: plate coated with recombinant human FcRn, antibody titrated, goat anti-human Fc-HRP, OD650. On the technique in general: ELISA stands for enzyme-linked immunosorbent assay.
Description: FcRn binding was evaluated using an enzyme linked immunoassay (ELISA). Briefly, 96-well ELISA plates were coated with of recombinant human FcRn (Sino Biological, Inc, Beijing, China) in 1× PBS (pH 6.0) coating buffer. Subsequently, the plates were washed and blocked with ELISA blocking buffer. […] After washing to remove unbound antibodies, the bound antibodies were detected with horseradish peroxidase (HRP) conjugated goat anti-human Fc-specific polyclonal antibody (Jackson ImmunoResearch, West Grove, PA). After washing to remove unbound detection antibody, a slow kinetic substrate solution of tetramethylbenzidine (TMB) was added to the wells where color develops in proportion to the amount of testing samples. The optical density (OD) of the color was measured at 650 nm and was used for determination of the amount of testing samples bound to FcRn. Detectable binding of antibodies over the range of test concentrations was analyzed using the one-site binding, nonlinear regression analysis with GraphPad Prism.

T1 sequence (P55899 24-297 limits assumed, chain 1 of 2): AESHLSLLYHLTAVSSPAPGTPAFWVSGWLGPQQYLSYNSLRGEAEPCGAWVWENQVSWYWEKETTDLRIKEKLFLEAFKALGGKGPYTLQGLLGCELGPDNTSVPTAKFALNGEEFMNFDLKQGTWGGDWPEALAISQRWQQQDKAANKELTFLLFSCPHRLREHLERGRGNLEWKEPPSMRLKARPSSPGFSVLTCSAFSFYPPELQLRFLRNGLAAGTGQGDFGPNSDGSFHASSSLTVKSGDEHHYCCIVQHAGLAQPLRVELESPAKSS
T1 sequence (P61769 21-119 limits assumed, chain 2 of 2): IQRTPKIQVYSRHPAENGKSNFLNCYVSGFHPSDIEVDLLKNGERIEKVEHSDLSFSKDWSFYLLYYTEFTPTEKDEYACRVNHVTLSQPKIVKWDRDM

B1: Anti-EGFR Mab No. 3, L234A, L235A, L328C (antibody, human IgG1, L234A L235A)
heavy: QVQLQQSGAEVKKPGSSVKVSCKASGYTFTNYYIYWVRQAPGQGLEWIGGINPTSGGSNFNEKFKTRVTITADESSTTAYMELSSLRSEDTAFYFCTRQGLWFDSDGRGFDFWGQGTTVTVSSASTKGPSVFPLAPSSKSTSGGTAALGCLVKDYFPEPVTVSWNSGALTSGVHTFPAVLQSSGLYSLSSVVTVPSSSLGTQTYICNVNHKPSNTKVDKRVEPKSCDKTHTCPPCPAPEAAGGPSVFLFPPKPKDTLMISRTPEVTCVVVDVSHEDPEVKFNWYVDGVEVHNAKTKPREEQYNSTYRVVSVLTVLHQDWLNGKEYKCKVSNKACPAPIEKTISKAKGQPREPQVYTLPPSREEMTKNQVSLTCLVKGFYPSDIAVEWESNGQPENNYKTTPPVLDSDGSFFLYSKLTVDKSRWQQGNVFSCSVMHEALHNHYTQKSLSLSPGK
light: DIQMTQSPSSLSASVGDRVTITCRSSQNIVHSNGNTYLDWYQQTPGKAPKLLIYKVSNRFSGVPSRFSGSGSGTDFTFTISSLQPEDIATYYCFQYSHVPWTFGQGTKLQITREVAAPSVFIFPPSDEQLKSGTASVVCLLNNFYPREAKVQWKVDNALQSGNSQESVTEQDSKDSTYSLSSTLTLSKADYEKHKVYACEVTHQGLSSPVTKSFNRGEC
notes: Fc variant; also called Anti-EGFR Ab No. 3 L234A, L235A, L328C; triple mutant
As for B1, the binding result is “binds”.

B2: Anti-EGFR Mab No. 3, L328C (antibody, human IgG1)
heavy: not shown
light: DIQMTQSPSSLSASVGDRVTITCRSSQNIVHSNGNTYLDWYQQTPGKAPKLLIYKVSNRFSGVPSRFSGSGSGTDFTFTISSLQPEDIATYYCFQYSHVPWTFGQGTKLQITREVAAPSVFIFPPSDEQLKSGTASVVCLLNNFYPREAKVQWKVDNALQSGNSQESVTEQDSKDSTYSLSSTLTLSKADYEKHKVYACEVTHQGLSSPVTKSFNRGEC
notes: Fc variant; also called Anti-EGFR Ab No. 3 L328C; single mutant
Turning to B2, the binding result is “binds”.
